Experimental findings from paper PMC3265891 (The Journal of Biological Chemistry, 2011) are described below.

Positions count from the first letter of the chain named. Names and notes keep the numbering of the source.

The data set “SEC” deals with the molecule itself. Kind of data set: SEC. (In general: In gel filtration, larger molecules generally elute earlier.)
The data set “crystal structure” concerns the molecule itself. Put plainly: crystal structure.

B1: human UDP-glucose 6-dehydrogenase E161Q mutant (C-terminally truncated) (enzyme, UniProt O60701 1-467, looked up)
chain: MFEIKKICCIGAGYVGGPTCSVIAHMCPEIRVTVVDVNESRINAWNSPTLPIYEPGLKEVVESCRGKNLFFSTNIDDAIKEADLVFISVNTPTKTYGMGKGRAADLKYIEACARRIVQNSNGYKIVTEKSTVPVRAAESIRRIFDANTKPNLNLQVLSNPQFLAEGTAIKDLKNPDRVLIGGDETPEGQRAVQALCAVYEHWVPREKILTTNTWSSELSKLAANAFLAQRISSINSISALCEATGADVEEVATAIGMDQRIGNKFLKASVGFGGSCFQKDVLNLVYLCEALNLPEVARYWQQVIDMNDYQRRRFASRIIDSLFNTVTDKKIAILGFAFKKDTGDTRESSSIYISKYLMDEGAHLHIYDPKVPREQIVVDLSHPGVSEDDQVSRLVTISKDPYEACDGAHAVVICTEWDMFKELDYERIHKKMLKPAFIFDGRRVLDGLHNELQTIGFQIETIGKKVS
Consider B1, for which the stoichiometry N (commonly the number of molecules, sites or subunits per partner or assembly) in the data set “SEC” came to 6.

B2: human UDP-glucose 6-dehydrogenase N224A mutant (C-terminally truncated) (enzyme, UniProt O60701 1-467, looked up)
chain: B1 chain with Q161E, N224A
Turning to B2, the “stoichiometry N” value in “SEC” came out at 6.

B3: human UDP-glucose 6-dehydrogenase D280A mutant (C-terminally truncated) (enzyme, UniProt O60701 1-467, looked up)
chain: B1 chain with Q161E, D280A
For B3, in the data set “SEC”, the “stoichiometry N” value was 6.

B4: human UDP-glucose 6-dehydrogenase T131S mutant (C-terminally truncated) (enzyme, UniProt O60701 1-467, looked up)
chain: B1 chain with T131S, Q161E
With B4, the “stoichiometry N” value in the data set “SEC” worked out at 6.

B5: human UDP-glucose 6-dehydrogenase E161Q mutant (thiohemiacetal intermediate) (enzyme, UniProt O60701 1-467, looked up)
chain: B1 chain
modifications: Cys276 covalently modified: Sγ bonded to C6 of the UDP-Glc-derived substrate (thiohemiacetal)
For B5, in “crystal structure”, the binding result is given as “binds”.

B6: human UDP-glucose 6-dehydrogenase K220A mutant (C-terminally truncated) (enzyme, UniProt O60701 1-467, looked up)
chain: B1 chain with Q161E, K220A
As to B6, in the data set “SEC”, the “stoichiometry N” value was 6.
